From the supplement of paper PMC11246515
± gives the standard deviation of the averaged measurements.

Assay: total protein half-life in vivo (active degradation + dilution); higher = more stable protein
[1] = E. coli NCM3722 delta-clpP delta-lon delta-hslV, growth: N-lim chemostat, doubling time 6 h
[2] = E. coli NCM3722 delta-clpP, growth: N-lim chemostat, doubling time 6 h
[3] = E. coli NCM3722 delta-hslV, growth: N-lim chemostat, doubling time 6 h
[4] = E. coli NCM3722 delta-lon, growth: N-lim chemostat, doubling time 6 h
[5] = E. coli NCM3722 delta-smpB, growth: N-lim chemostat, doubling time 6 h
[6] = wild type E. coli NCM3722, growth: C-lim chemostat, doubling time 3 h
[7] = wild type E. coli NCM3722, growth: C-lim chemostat, doubling time 6 h
[8] = wild type E. coli NCM3722, growth: C-lim chemostat, doubling time 12 h
[9] = wild type E. coli NCM3722, growth: N-lim chemostat, doubling time 6 h
[10] = wild type E. coli NCM3722, growth: N-lim chemostat, doubling time 12 h
[11] = wild type E. coli NCM3722, growth: P-lim chemostat, doubling time 6 h
[12] = wild type E. coli NCM3722, growth: P-lim chemostat, doubling time 12 h

Substance: P0AGE9
- total protein half-life in vivo [1]: 4.58 ± 0.064 h
- total protein half-life in vivo [2]: 4.71 ± 0.71 h
- total protein half-life in vivo [3]: 4.68 ± 0.31 h
- total protein half-life in vivo [4]: 5.1 ± 0.21 h
- total protein half-life in vivo [5]: 4.28 ± 0.29 h
- total protein half-life in vivo [6]: 3.06 ± 0.069 h
- total protein half-life in vivo [7]: 5.43 ± 0.12 h
- total protein half-life in vivo [8]: 9.89 ± 1.2 h
- total protein half-life in vivo [9]: 4.64 ± 0.056 h
- total protein half-life in vivo [10]: 7.237 ± 0.026 h
- total protein half-life in vivo [11]: 5.85 ± 0.2 h
- total protein half-life in vivo [12]: 11.9 ± 0.51 h

Substance: MNIYTFDFDEIESQEDFYRDFSQTFGLAKDKVRDLDSLWDVLMNDVLPLPLEIEFVHLGEKTRRRFGALILLFDEAEEELEGHLRFNVRH
- total protein half-life in vivo [1]: 4.37 ± 1.1 h
- total protein half-life in vivo [2]: 3.85 h
- total protein half-life in vivo [3]: 5.5 h
- total protein half-life in vivo [4]: 7.32 h
- total protein half-life in vivo [5]: 4.41 ± 0.68 h
- total protein half-life in vivo [6]: 2.87 h
- total protein half-life in vivo [7]: 5.2 h
- total protein half-life in vivo [8]: 9.22 ± 0.45 h
- total protein half-life in vivo [9]: 4.83 ± 0.14 h
- total protein half-life in vivo [10]: 10.2 h
- total protein half-life in vivo [11]: 4.26 h
- total protein half-life in vivo [12]: 10.1 ± 1.3 h

Substance: MNPIVINRLQRKLGYTFNHQELLQQALTHRSASSKHNERLEFLGDSILSYVIANALYHRFPRVDEGDMSRMRATLVRGNTLAELAREFELGECLRLGPGELKSGGFRRESILADTVEALIGGVFLDSDIQTVEKLILNWYQTRLDEISPGDKQKDPKTRLQEYLQGRHLPLPTYLVVQVRGEAHDQEFTIHCQVSGLSEPVVGTGSSRRKAEQAAAEQALKKLELE [P0A7Y0]
- total protein half-life in vivo [1]: 5.33 ± 0.47 h
- total protein half-life in vivo [2]: 4.64 ± 0.1 h
- total protein half-life in vivo [3]: 5.21 ± 0.87 h
- total protein half-life in vivo [4]: 5.08 ± 0.24 h
- total protein half-life in vivo [5]: 4.72 ± 0.15 h
- total protein half-life in vivo [6]: 2.85 ± 0.21 h
- total protein half-life in vivo [7]: 5.54 ± 0.24 h
- total protein half-life in vivo [8]: 8.37 ± 0.68 h
- total protein half-life in vivo [9]: 4.85 ± 0.54 h
- total protein half-life in vivo [10]: 7.78 ± 0.17 h
- total protein half-life in vivo [11]: 5.51 ± 0.21 h
- total protein half-life in vivo [12]: 11.4 ± 0.34 h

Substance: MDVTAKYELIGLMAYPIRHSLSPEMQNKALEKAGLPFTYMAFEVDNDSFPGAIEGLKALKMRGTGVSMPNKQLACEYVDELTPAAKLVGAINTIVNDDGYLRGYNTDGTGHIRAIKESGFDIKGKTMVLLGAGGASTAIGAQGAIEGLKEIKLFNRRDEFFDKALAFAQRVNENTDCVVTVTDLADQQAFAEALASADILTNGTKVGMKPLENESLVNDISLLHPGLLVTECVYNPHMTKLLQQAQQAGCKTIDGYGMLLWQGAEQFTLWTGKDFPLEYVKQVMGFGA [P0A6D5]
- total protein half-life in vivo [1]: 4.77 h

Substance: MPKLGMQSIRRRQLIDATLEAINEVGMHDATIAQIARRAGVSTGIISHYFRDKNGLLEATMRDITSQLRDAVLNRLHALPQGSAEQRLQAIVGGNFDETQVSSAAMKAWLAFWASSMHQPMLYRLQQVSSRRLLSNLVSEFRRELPREQAQEAGYGLAALIDGLWLRAALSGKPLDKTRANSLTRHFITQHLPTD
- total protein half-life in vivo [1]: 4.85 ± 0.33 h
- total protein half-life in vivo [2]: 4.25 h
- total protein half-life in vivo [4]: 4.46 h
- total protein half-life in vivo [9]: 4.99 h

Substance: MSSLPVAAVLPELLTALDCAPQVLLSAPTGAGKSTWLPLQLLAHPGINGKIILLEPRRLAARNVAQRLAELLNEKPGDTVGYRMRAQNCVGPNTRLEVVTEGVLTRMIQRDPELSGVGLVILDEFHERSLQADLALALLLDVQQGLRDDLKLLIMSATLDNDRLQQMLPEAPVVISEGRSFPVERRYLPLPAHQRFDDAVAVATAEMLRQESGSLLLFLPGVGEIQRVQEQLASRIGSDVLLCPLYGALSLNDQRKAILPAPQGMRKVVLATNIAETSLTIEGIRLVVDCAQERVARFDPRTGLTRLITQRVSQASMTQRAGRAGRLEPGISLHLIAKEQAERAAAQSEPEILQSDLSGLLMELLQWGCSDPAQMSWLDQPPVVNLLAAKRLLQMLGALEGERLSAQGQKMAALGNDPRLAAMLVSAKNDDEAATAAKIAAILEEPPRMGNSDLGVAFSRNQPAWQQRSQQLLKRLNVRGGEADSSLIAPLLAGAFADRIARRRGQDGRYQLANGMGAMLDANDALSRHEWLIAPLLLQGSASPDARILLALLVDIDELVQRCPQLVQQSDTVEWDDAQGTLKAWRRLQIGQLTVKVQPLAKPSEDELHQAMLNGIRDKGLSVLNWTAEAEQLRLRLLCAAKWLPEYDWPAVDDESLLAALETWLLPHMTGVHSLRGLKSLDIYQALRGLLDWGMQQRLDSELPAHYTVPTGSRIAIRYHEDNPPALAVRMQEMFGEATNPTIAQGRVPLVLELLSPAQRPLQITRDLSDFWKGAYREVQKEMKGRYPKHVWPDDPANTAPTRRTKKYS
- total protein half-life in vivo [1]: 5.57 ± 0.07 h
- total protein half-life in vivo [2]: 5.56 ± 0.99 h
- total protein half-life in vivo [3]: 3.91 ± 0.046 h
- total protein half-life in vivo [4]: 4.29 ± 0.098 h
- total protein half-life in vivo [5]: 4.21 ± 0.25 h
- total protein half-life in vivo [6]: 2.8 ± 0.11 h
- total protein half-life in vivo [7]: 4.648 ± 0.041 h
- total protein half-life in vivo [8]: 9.65 ± 3.8 h
- total protein half-life in vivo [9]: 3.97 ± 0.26 h
- total protein half-life in vivo [10]: 6.433 ± 0.061 h
- total protein half-life in vivo [11]: 4.905 ± 0.044 h
- total protein half-life in vivo [12]: 9.09 ± 0.45 h

Substance: MATTHLDVCAVVPAAGFGRRMQTECPKQYLSIGNQTILEHSVHALLAHPRVKRVVIAISPGDSRFAQLPLANHPQITVVDGGDERADSVLAGLKAAGDAQWVLVHDAARPCLHQDDLARLLALSETSRTGGILAAPVRDTMKRAEPGKNAIAHTVDRNGLWHALTPQFFPRELLHDCLTRALNEGATITDEASALEYCGFHPQLVEGRADNIKVTRPEDLALAEFYLTRTIHQENT
- total protein half-life in vivo [1]: 4.65 ± 0.39 h
- total protein half-life in vivo [2]: 5.096 ± 0.047 h
- total protein half-life in vivo [3]: 5.2 ± 1.2 h
- total protein half-life in vivo [4]: 4.6 ± 2.6 h
- total protein half-life in vivo [5]: 4.66 ± 0.47 h
- total protein half-life in vivo [6]: 3.29 ± 0.43 h
- total protein half-life in vivo [7]: 6.7 ± 1.2 h
- total protein half-life in vivo [8]: 10.6 ± 1.2 h
- total protein half-life in vivo [9]: 5.66 ± 1.1 h
- total protein half-life in vivo [10]: 8.34 ± 2 h
- total protein half-life in vivo [12]: 11.96 ± 0.058 h

Substance: MEYFDMRKMSVNLWRNAAGETREICTFPPAKRDFYWRASIASIAANGEFSLFPGMERIVTLLEGGEMLLESADRFNHTLKPFQPFAFAADQVVKAKLTAGQMSMDFNIMTRLDVCKAKVRIAERTFTTFGSRGGVVFVINGAWQLGDKLLTTDQGACWFDGRHTLRLLQPQGKLLFSEINWLAGHSPDQVQ
- total protein half-life in vivo [6]: 0.307 h

Substance: MHFRAITRIVGLLVILFSGTMIIPGLVALIYRDGAGRAFTQTFFVALAIGSMLWWPNRKEKGELKSREGFLIVVLFWTVLGSVGALPFIFSESPNLTITDAFFESFSGLTTTGATTLVGLDSLPHAILFYRQMLQWFGGMGIIVLAVAILPILGVGGMQLYRAEMPGPLKDNKMRPRIAETAKTLWLIYVLLTVACALALWFAGMDAFDAIGHSFATIAIGGFSTHDASIGYFDSPTINTIIAIFLLISGCNYGLHFSLLSGRSLKVYWRDPEFRMFIGVQFTLVVICTLVLWFHNVYSSALMTINQAFFQVVSMATTAGFTTDSIARWPLFLPVLLLCSAFIGGCAGSTGGGLKVIRILLLFKQGNRELKRLVHPNAVYSIKLGNRALPERILEAVWGFFSAYALVFIVSMLAIIATGVDDFSAFASVVATLNNLGPGLGVVADNFTSMNPVAKWILIANMLFGRLEVFTLLVLFTPTFWRE [P0AFZ7]
- total protein half-life in vivo [1]: 7.11 h
- total protein half-life in vivo [2]: 6.5 h
- total protein half-life in vivo [3]: 6.15 ± 0.27 h
- total protein half-life in vivo [4]: 5.5 ± 1.2 h
- total protein half-life in vivo [6]: 3.51 ± 0.23 h
- total protein half-life in vivo [7]: 6.13 ± 0.096 h
- total protein half-life in vivo [8]: 12.8 ± 1.7 h
- total protein half-life in vivo [9]: 6.77 ± 0.85 h
- total protein half-life in vivo [10]: 12.3 ± 0.14 h
- total protein half-life in vivo [11]: 5.4 h
- total protein half-life in vivo [12]: 11.4 ± 0.63 h
